US11578136B2, “Compositions and methods for treating cancer” (INNATE PHARMA, priority 2017, dated 2023)
“Also recorded” adds a separate entry of the source.

Columns and labels:
[1] = molecular target: T1, CD39 expressed by Ramos human lymphoma cells (Homo sapiens, UniProt P49961); assay: Inhibition of the enzymatic activity of cellular CD39 in Ramos cells (Cell Titer Glo); assay type: cell-based
T1 construct: host or cells: Ramos human lymphoma cells
T1 sequence (P49961 1-510): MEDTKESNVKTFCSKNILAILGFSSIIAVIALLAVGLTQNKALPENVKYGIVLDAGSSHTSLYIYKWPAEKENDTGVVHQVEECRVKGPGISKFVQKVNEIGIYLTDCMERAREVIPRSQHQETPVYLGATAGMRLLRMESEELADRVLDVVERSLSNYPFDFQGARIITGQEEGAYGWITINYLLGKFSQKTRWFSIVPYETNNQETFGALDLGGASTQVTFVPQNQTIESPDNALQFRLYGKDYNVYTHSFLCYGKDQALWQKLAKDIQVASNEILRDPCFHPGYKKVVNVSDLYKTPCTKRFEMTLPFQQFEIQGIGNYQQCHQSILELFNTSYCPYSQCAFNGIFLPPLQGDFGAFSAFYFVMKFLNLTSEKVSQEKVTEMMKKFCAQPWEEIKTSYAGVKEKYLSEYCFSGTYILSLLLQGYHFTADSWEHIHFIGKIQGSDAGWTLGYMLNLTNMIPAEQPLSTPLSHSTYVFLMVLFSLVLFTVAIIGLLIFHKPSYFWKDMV
Protocol: (§1) The inhibition of the CD39 enzymatic activity in CD39-expressing cells by antibodies was evaluated using Cell Titer Glo™ (Promega, reference G7571) that allows assessment of ATP hydrolysis through use of a reagent that generates a luminescent signal proportional to the amount of ATP present. The assay was thus designed to permit assessment of the inhibition of ATP hydrolyzed by CD39 in the cell culture supernatant. Briefly, 5×10^4 Ramos human lymphoma cells, 5×10^3 human CD39-, cynomolgus CD39- and mouse CD39-expressing CHO cells, were incubated 1 hour at 37° C. with anti-CD39 antibodies from 30 μg/ml to […]. Cells were then incubated with 20 μM ATP for 1 additional hour at 37° C. Plates were centrifuged for 2 min at 400 g and 50 μl cell supernatant are transferred in a luminescence microplate (white wells). 50 μl CellTiter-Glo® Reagent (CTG) was added to the supernatant and emitted light was quantified after a 5 min incubation in the dark using a Enspire™ luminometer. Anti-CD39 antibody efficacy was determined by comparing emitted light in presence of antibody with ATP alone (maximal light emission) and ATP together with cells (minimal light emission).
(§2) The inhibition by antibody I-394 of the ATPase activity of CD39 in CD39-expressing cells was evaluated using the assay used for inhibition of the enzymatic activity of cellular CD39 as described above (Methods).

[2] = molecular target: T2, CHO cells expressing murine CD39 (Mus musculus, UniProt P55772); assay: Antibody titration on CHO-moCD39 by flow cytometry; assay type: binding; conditions: result in words
T2 construct: expressed in transfected cells; host or cells: CHO cells
T2 sequence (P55772 1-510): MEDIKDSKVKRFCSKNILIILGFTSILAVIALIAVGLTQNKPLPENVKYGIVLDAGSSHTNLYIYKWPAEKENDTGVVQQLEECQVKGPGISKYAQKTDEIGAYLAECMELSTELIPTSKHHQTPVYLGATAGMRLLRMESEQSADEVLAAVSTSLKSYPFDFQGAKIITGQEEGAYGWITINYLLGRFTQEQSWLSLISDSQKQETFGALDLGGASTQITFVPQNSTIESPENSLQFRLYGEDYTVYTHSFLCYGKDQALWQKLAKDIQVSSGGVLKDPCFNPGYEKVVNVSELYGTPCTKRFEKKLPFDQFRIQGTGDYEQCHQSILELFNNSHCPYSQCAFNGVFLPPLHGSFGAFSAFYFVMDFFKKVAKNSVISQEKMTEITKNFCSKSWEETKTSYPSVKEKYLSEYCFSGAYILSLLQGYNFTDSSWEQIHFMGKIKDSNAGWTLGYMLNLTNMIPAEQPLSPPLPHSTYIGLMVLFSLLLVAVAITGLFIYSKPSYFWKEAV
Protocol: Antibody I-394 was tested in two repeated experiments for binding to CHO cells expressing human CD39, CHO cells expressing cynomolgus (Macaca fascicularis) CD39, CHO cells expressing murine CD39, and human Ramos lymphoma cells (ATCC™, reference CRL-1596). Cells were incubated with various concentration of unlabeled anti-CD39 antibody from 30 μg/ml to 5×10^−4 μg/ml, for 30 minutes at 4° C. After washes, cells were incubated with Goat anti-mouse H+L labeled secondary antibody for 30 min at 4° C.

[3] = molecular target: T3, human CD39-expressing CHO cells (CHO-huCD39) (Homo sapiens, UniProt P49961); assay: Inhibition of the enzymatic activity of cellular CD39 in CHO-huCD39; assay type: cell-based; conditions: result in words
T3 construct: expressed in transfected cells; host or cells: CHO cells
T3 sequence (P49961 1-510): T1 sequence (P49961 1-510)
Protocol: as §1, §2

[4] = molecular target: T4, soluble recombinant human CD39 protein (Homo sapiens, UniProt P49961); assay: Inhibition of the enzymatic activity of soluble CD39 (Cell Titer Glo); assay type: biochemical
T4 construct: made in house; host or cells: CHO cells
T4 sequence (P49961 with tags, fused parts or gaps): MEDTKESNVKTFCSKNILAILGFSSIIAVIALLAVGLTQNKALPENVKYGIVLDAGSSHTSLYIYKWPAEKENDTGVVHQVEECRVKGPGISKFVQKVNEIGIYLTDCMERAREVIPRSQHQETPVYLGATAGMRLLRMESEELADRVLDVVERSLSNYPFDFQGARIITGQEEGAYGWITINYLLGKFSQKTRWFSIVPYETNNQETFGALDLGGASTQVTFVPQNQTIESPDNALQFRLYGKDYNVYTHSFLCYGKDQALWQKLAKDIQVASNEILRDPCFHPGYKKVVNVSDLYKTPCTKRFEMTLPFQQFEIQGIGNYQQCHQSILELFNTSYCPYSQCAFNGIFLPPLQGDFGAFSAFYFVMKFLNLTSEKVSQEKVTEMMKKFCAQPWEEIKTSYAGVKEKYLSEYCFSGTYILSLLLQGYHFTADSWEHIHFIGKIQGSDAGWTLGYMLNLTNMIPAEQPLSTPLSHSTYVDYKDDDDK
Protocol: The inhibition by antibodies of the enzymatic activity of soluble CD39 protein produced was evaluated using Cell Titer Glo™ (Promega, reference G7571) that allows assessment of ATP hydrolysis through use of a reagent that generates a luminescent signal proportional to the amount of ATP present. In this way, inhibition of the soluble-CD39-meidatd ATP hydrolysis can be assessed. Briefly, dose ranges of anti-CD39 antibodies from 100 μg/ml to 6×10^−3 μg/ml were incubated with 400 ng/ml of soluble recombinant human CD39 protein having the amino acid sequence described in the Methods section (SEQ ID NO: 45), for 1 h at 37° C. 20 μM ATP was added to the plates for 30 additional minutes at 37° C. before addition of CTG (Cell Titer Glo) reagent. Emitted light was quantified using an Enspire™ luminometer after a short incubation period of 5 min in the dark. Anti-CD39 antibody efficacy was determined by comparing emitted light in presence of antibody with ATP alone (maximal light emission) and ATP together with soluble CD39 protein (minimal light emission).

“I-394: anti-CD39 antibody, VH SEQ ID NO: 6, VL SEQ ID NO: 7; human IgG1 Fc with L234A/L235E/G237A/A330S/P331S” was tested, and the “potency at blocking CD39 in Ramos cells compared to all other antibodies tested” value [1] was “greater potency”, the “maximum inhibition achieved, cellular CD39” value ([1]; Ramos cells) was 81.6% and the “blocking CD39 enzymatic activity in tumor (Ramos) cells” value ([1]; result in words) was “highly potent”. For the same substance, the “binding to cells expressing murine CD39 (CHO-moCD39)” value [2] was “not”, the “blocking CD39 enzymatic activity in CHO-huCD39” value [3] was “blocks” and the “maximum inhibition achieved, soluble CD39” value [4] was 74.9%. For the same substance, the “relative potency of inhibition of soluble CD39 (FIG. 2B)” value ([4]; ranking among I-394, I-395, I-396) was “greatest potency” and the “inhibition of the enzymatic activity of soluble CD39 protein” value ([4]; result in words, 400 ng/ml sCD39, 20 μM ATP) was “strong inhibition; also recorded: inhibits”.
